Source: the supplement of paper PMC10567573

B1: TRIM9 (parent)
chain: PRNSCITCPQCHRSLILDDRGLRG

Variants of: B1
Assay: protein stability index of a GFP-peptide fusion (GPS, HEK-293T) (PSI 1-6); higher = more stable
Settings: c terminus: a fixed tail appended
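Also: lentivirally expressed fusions sorted by FACS into six bins by GFP to DsRed ratio, PSI derived from sequencing read proportions per bin multiplied by bin number.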

Protein stability index, by site and new letter:
L15: A 1.92 | C 1.95 | T 2.59 | E 2.19 | K 2.12 | F 3.08 | Q 2.79 | M 2.61 | R 2.13 | H 2.45 | S 2.19 | W 2.48 | P 2.77 | V 2.24 | D 2.51 | G 1.64 | N 1.98 | Y 2.79 | I 1.68
P1: Y 2.04 | T 1.97 | V 2.46 | N 2.16 | L 2.29 | W 1.94 | E 3.1 | C 2.61 | I 2.33 | G 1.71 | R 2.28 | H 2.47 | Q 1.83 | A 1.82 | M 1.76 | S 2.61 | K 2.48 | D 2.4
I6: H 2.46 | D 2.15 | C 2.26 | P 2.6 | Y 2.72 | T 1.89 | L 2.26 | Q 2.16 | A 1.48 | F 1.66 | N 2.29 | M 2.08 | S 2.02 | E 2.02 | G 1.93
C5: R 3.09 | Q 1.92 | N 1.99 | P 2.49 | F 2.08 | A 1.67 | D 2.11 | Y 1.87 | K 1.71 | L 2.29 | E 2.67 | T 2.02 | V 2.8 | H 1.77 | I 2.34 | G 2.75 | S 2.42
I16: D 2.64 | C 2.32 | R 2.13 | T 1.99 | V 2.28 | M 2.58 | P 2.42 | S 2.97 | E 3.16 | Y 2.58 | K 2.68 | N 2.49 | F 1.69 | Q 2.69 | G 1.76 | L 2.38 | A 1.94 | H 1.97
C11: D 2.92 | T 2.78 | S 2.43 | H 2.51 | F 2.38 | L 1.83 | W 3.38 | K 2.62 | I 2.98 | Q 2.16 | P 2.47 | R 2.71 | M 1.97 | V 2.2 | G 3.01 | A 2.29 | E 2.86 | Y 2.11
S14: W 1.68 | L 2.11 | Y 2.66 | K 2.7 | H 2.25 | G 1.26 | C 2.92 | I 2.93 | R 2.4 | E 2.6 | F 1.91 | T 2.71 | D 2.4 | Q 2 | V 3.13 | N 1.9 | A 2.18 | P 2.52 | M 2.27
R13: D 3.33 | Q 2.63 | H 2.59 | N 2.49 | V 2.2 | E 2.61 | A 3.91 | T 3.47 | Y 2.53 | S 2.9 | F 2.09 | P 1.97 | C 4.16 | I 1.95 | W 2.42 | G 2.37 | K 1.95 | M 1.77 | L 1.57
H12: P 2.52 | W 2.07 | C 1.6 | A 2.53 | I 1.85 | G 2.68 | T 1.38 | K 2.69 | V 3.37 | M 2.78 | L 3.13 | F 2.2 | S 2.04 | Q 1.96 | Y 2.46 | D 2.28 | N 2.16
L17: Q 2.25 | I 2.05 | H 2.74 | W 1.56 | F 2.44 | D 2.48 | M 2.21 | A 1.72 | P 2.4 | C 2.51 | Y 2.11 | E 2.2 | S 2.15 | K 2.1 | G 2.08 | V 2.19 | R 2.48 | N 1.79 | T 2.08
Q10: F 3 | M 2.04 | S 2.46 | L 1.89 | C 1.95 | N 2.47 | T 2.52 | D 2.49 | R 2.36 | K 2.25 | A 2.37 | G 4.38 | I 2.05 | V 2.29 | H 2.62 | P 2.02 | E 1.53 | Y 3.29
P9: W 3.5 | H 1.51 | K 2.18 | V 2.67 | L 2.12 | S 2.16 | M 1.45 | N 1.54 | F 1.54 | A 2.5 | T 1.83 | Y 3.11 | C 2.45 | E 1 | D 2.05 | G 1.72 | R 2.58
D18: P 1.49 | Q 1.96 | T 2.24 | I 1.53 | N 1.7 | K 2.24 | Y 2.36 | G 2.36 | A 2.31 | M 2.57 | L 1.53 | E 1.71 | H 2.03 | S 2.3 | C 2.05 | W 1.68 | F 1.92 | V 1.85
S4: K 1.65 | I 2.52 | M 2.89 | Y 2.17 | T 1.73 | N 1.8 | E 2.2 | F 2.31 | Q 1.85 | A 2 | H 2.14 | V 2.27 | W 1.71 | G 1.76 | D 2.29 | P 2.1 | L 2.37
T7: A 2.42 | M 2.36 | G 2.4 | W 2 | D 1.81 | Q 2.38 | K 2.25 | C 2.05 | P 1.72 | Y 2.33 | H 3.11 | N 2.04 | L 1.99 | R 1.98 | S 2.48 | V 3.1 | F 1.84 | I 2.16 | E 1.99
N3: V 1.83 | H 2.53 | W 1.62 | F 1.96 | T 1.78 | M 1.6 | A 2.36 | S 2.5 | K 1.94 | D 2.34 | Y 1.85 | C 1.8 | R 2.03 | P 1.49 | G 1.52 | I 1.92 | E 2.16 | L 2.52
R2: E 2.71 | D 2.34 | Y 3.02 | K 2.19 | I 2.64 | Q 2.52 | G 2.82 | V 1.92 | T 2.56 | N 2.44 | P 2.92 | L 2.24 | W 2.14 | F 1.89 | H 2.29 | M 2.16 | C 1.74 | A 1.58 | S 1.94
C8: H 2.29 | T 3.33 | M 2.62 | A 2.84 | N 2.6 | I 2.38 | D 2.24 | L 2.35 | R 2.47 | G 2.34 | F 1.57 | W 2.89 | Y 2.54 | Q 2.16 | K 2.4 | P 3.14 | V 2.47 | S 3.15 | E 3.18
D19: L 1.41 | F 1.72 | G 1.58 | K 2.05 | E 1.82 | A 2.46 | M 2.24 | I 1.75 | C 2.6 | H 1.9
